Laboratory results taken from the supplement of paper PMC7125110.
± gives the standard error. For part of these data: Fewer inactive variants are shown than the library holds.

B1: glmS ribozyme (parent)
chain: AUAAAAGCGCCAGAACUACAGAAAUGUAGUUGACGAGGAGGAGGUUUAUCGAAUUUUCGGCGGAUGCCUCCAAA

What was measured:
Settings in all cases: with glucosamine-6-phosphate
glucosamine-6-phosphate [1] = variants of: B1; assay: kcat; higher = faster cleavage; RNA array
In short: (§1)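 Glucosamine-6-phosphate (40 μM to 10 mM) in HEPES/KCl/Mg(OAc)2 buffer was flowed over sequenced MiSeq chips, and tiles were imaged over ~14 h. Barcoded ribozyme variants there had been transcribed in situ by E. coli RNA polymerase and were tracked through a hybridised Cy3 probe at 37 °C. One- or two-exponential decay fits to per-tile medians, normalised to baseline and to non-cleaving reference variants, gave kobs. kcat and KM came from weighted Michaelis–Menten fits across concentrations.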

glucosamine-6-phosphate [2] = variants of: B1; assay: self-cleavage kobs at 10000 uM GlcN6P; higher = faster cleavage; RNA array
In short: as §1

glucosamine-6-phosphate [3] = variants of: B1; assay: KM; higher = weaker cofactor use; RNA array
In short: as §1

glucosamine-6-phosphate [4] = variants of: B1; assay: self-cleavage kobs at 640 uM GlcN6P; higher = faster cleavage; RNA array
In short: as §1

glucosamine-6-phosphate [5] = variants of: B1; assay: self-cleavage kobs at 2500 uM GlcN6P; higher = faster cleavage; RNA array
In short: as §1

glucosamine-6-phosphate [6] = variants of: B1; assay: self-cleavage kobs at 40 uM GlcN6P; higher = faster cleavage; RNA array
In short: as §1

glucosamine-6-phosphate [7] = variants of: B1; assay: self-cleavage kobs at 160 uM GlcN6P; higher = faster cleavage; RNA array
In short: as §1

Variant | kcat (glucosamine-6-phosphate [1]) | self-cleavage kobs at 10000 uM GlcN6P (glucosamine-6-phosphate [2]) | KM (glucosamine-6-phosphate [3]) | self-cleavage kobs at 640 uM GlcN6P (glucosamine-6-phosphate [4]) | self-cleavage kobs at 2500 uM GlcN6P (glucosamine-6-phosphate [5]) | self-cleavage kobs at 40 uM GlcN6P (glucosamine-6-phosphate [6]) | self-cleavage kobs at 160 uM GlcN6P (glucosamine-6-phosphate [7])
AUAAAAGGGCCAGAUCUACAGAAAUGUAGUUGACGAGGAGGAGGUUUAUCGAAUCUUCGACGGAUGCCUCCAAA [C8G A15U U55C G60A] | < 1e-05 s⁻¹ | < 1e-05 s⁻¹ |  |  |  |  | 
AUAAAAGCGCCAGAACUACAGAAAUGUAGUUGACGAGGAGGUGGUUUAUCGAAUCUUCGGCGGAUGCCUCCAAA [A42U U55C] | 0.000267 ± 2.5e-05 s⁻¹ | 0.000223 ± 3e-05 s⁻¹ | 1350 ± 250 µM | 8.56e-05 ± 9.8e-06 s⁻¹ | 0.000198 ± 3e-05 s⁻¹ |  | 
AUAAAAGCGCCAGAACUACAGAAAUGUAGUUGACGAGGAAGAGGUUUAUCGAAUUUUCGGCGGAUACCUCCAAA [G40A G66A] | 0.00833 ± 0.0037 s⁻¹ | 0.00641 ± 0.00098 s⁻¹ |  | 0.00165 ± 0.00041 s⁻¹ |  | 0.000144 ± 2e-05 s⁻¹ | 0.000201 ± 8.8e-05 s⁻¹
AUAAAAGCGCCAGAACUACAGAAAUGUAGUUGACGAGGGGGAGGUUUAUCGGAUUUUCGGCGGAUGCCUCCAAA [A39G A52G] | 0.00286 ± 0.00015 s⁻¹ | 0.00205 ± 0.00028 s⁻¹ | 3960 ± 330 µM | 0.000407 ± 8.1e-05 s⁻¹ | 0.00108 ± 0.0003 s⁻¹ |  | 0.000117 ± 3.5e-05 s⁻¹
AUAAAAGCGCCAGUACUACAGAAAUGUAGUUGACGAGGAGGAGGUUUAUCGUAUUUUCGGCGGAUGCCUCCAAA [A14U A52U] | 0.000167 ± 2.7e-06 s⁻¹ | 0.000129 ± 1e-05 s⁻¹ | 2930 ± 110 µM | 3.02e-05 ± 7.3e-06 s⁻¹ | 7.62e-05 ± 7.8e-06 s⁻¹ |  | 
AUAAAAGCGCCAGAGCUACAGAAAUGUAGUUGACGAGGAGGAGGUUUAUCGAAUUUUCGGCGGAUGCUUCCAAA [A15G C68U] | 0.00322 ± 0.00055 s⁻¹ | 0.00316 ± 0.00032 s⁻¹ | 1130 ± 300 µM | 0.00112 ± 0.00019 s⁻¹ | 0.00139 ± 0.00047 s⁻¹ | 0.000128 ± 1.5e-05 s⁻¹ | 0.00032 ± 7.2e-05 s⁻¹
AUAAAAGCGUCAGAACUACAGAAAUGUAGUUGACGAGGAGGAGGUUUAUCGAAUUUUCGGCGGAUGCGUCCAAA [C10U C68G] | 2.34e-05 ± 4.7e-06 s⁻¹ |  |  |  | 2.5e-05 ± 7.6e-06 s⁻¹ |  | 
AUAAAAGCGCCAGAACUACAGAAAUGUAGUUGACGAGGAGGAGGUUUAUCGAAUUUUCGGCGGAUUCCUUCAAA [G66U C70U] | 0.00205 ± 0.00047 s⁻¹ | 0.00175 ± 0.00019 s⁻¹ | 1830 ± 590 µM | 0.000507 ± 4.8e-05 s⁻¹ | 0.00124 ± 0.00016 s⁻¹ | 6.67e-05 ± 8e-06 s⁻¹ | 0.000141 ± 1.7e-05 s⁻¹
